Laboratory results from publication PMC11417369, “DNA sequence and chromatin differentiate sequence-specific transcription factor binding in the human malaria parasite Plasmodium falciparum”.
Substitutions are numbered along the chain they refer to.

B1: GTGCAC_negctrl_site30 (dsDNA)
DNA 1: TCTTAAAAGGGGAATGGAATGGAGAAAATGAAATAA
DNA 2: TTATTTCATTTTCTCCATTCCATTCCCCTTTTAAGA
B2: GTGCAC_negctrl_site611 (dsDNA)
DNA 1: ATCGAAATTTTAGAATATATATGATGTTACTTAAGT
DNA 2: ACTTAAGTAACATCATATATATTCTAAAATTTCGAT
B3: GTGCAC_negctrl_site197 (dsDNA)
DNA 1: TTTTTAAAAAAGATAAGCGAAAGAATTAATTTTTAA
DNA 2: TTAAAAATTAATTCTTTCGCTTATCTTTTTTAAAAA
B4: GTGCAC_negctrl_site616 (dsDNA)
DNA 1: TTATTTTTATTATAAATTATAAAATATAAATAAATA
DNA 2: TATTTATTTATATTTTATAATTTATAATAAAAATAA
B5: GTGCAC_negctrl_site473 (dsDNA)
DNA 1: GGGTCAAGTAAGCTGTTCCTCTTTTTCTTTCTCACT
DNA 2: AGTGAGAAAGAAAAAGAGGAACAGCTTACTTGACCC
B6: GTGCAC_negctrl_site589 (dsDNA)
DNA 1: TTCTTTAATAAAATAATCTCAAAGAAAATTTTTTCT
DNA 2: AGAAAAAATTTTCTTTGAGATTATTTTATTAAAGAA
B7: GTGCAC_negctrl_site454 (dsDNA)
DNA 1: AAAAAAAAAGTATATATATATTTAAGGAATTCTCTC
DNA 2: GAGAGAATTCCTTAAATATATATATACTTTTTTTTT
B8: GTGCAC_negctrl_site409 (dsDNA)
DNA 1: ATTGAGGCTGGTTATATAATAATTTTATTATTTTAG
DNA 2: CTAAAATAATAAAATTATTATATAACCAGCCTCAAT
B9: GTGCAC_negctrl_site193 (dsDNA)
DNA 1: GCATATATTATATATTTATTTATTTTTTTTTTTTAA
DNA 2: TTAAAAAAAAAAAATAAATAAATATATAATATATGC
B10: GTGCAC_negctrl_site345 (dsDNA)
DNA 1: TTTTTCTATATTTTCTTTTATAAAATATATAATTTT
DNA 2: AAAATTATATATTTTATAAAAGAAAATATAGAAAAA
B11: GTGCAC_negctrl_site726 (dsDNA)
DNA 1: GAAAACATTAAAAGTTAGATCATAAGAAAAGAATAT
DNA 2: ATATTCTTTTCTTATGATCTAACTTTTAATGTTTTC
B12: GTGCAC_negctrl_site543 (dsDNA)
DNA 1: AAATGTGTAAATATAATTAGTTTCACAAAACAAATA
DNA 2: TATTTGTTTTGTGAAACTAATTATATTTACACATTT
B13: GTGCAC_negctrl_site374 (dsDNA)
DNA 1: TTTCCGGTAATATGGAGATATATGTGGGTTTTTTTT
DNA 2: AAAAAAAACCCACATATATCTCCATATTACCGGAAA
B14: GTGCAC_negctrl_site68 (dsDNA)
DNA 1: GCAAAATAACAATGTTACACTTATAAAATTGAGGCA
DNA 2: TGCCTCAATTTTATAAGTGTAACATTGTTATTTTGC
B15: GTGCAC_negctrl_site370 (dsDNA)
DNA 1: AATATATGGTTTCATGATATTAAATTCAATTTAATG
DNA 2: CATTAAATTGAATTTAATATCATGAAACCATATATT
B16: GTGCAC_negctrl_site22 (dsDNA)
DNA 1: B15 DNA 1 with G8T, A14C
DNA 2: B15 DNA 2 with T23G, C29A
B17: GTGCAC_negctrl_site76 (dsDNA)
DNA 1: B15 DNA 1 with G9C, A14G, G16T
DNA 2: B15 DNA 2 with C21A, T23C, C28G
B18: GTGCAC_negctrl_site494 (dsDNA)
DNA 1: AAGTTTAAGAAATAATTCATATTTACTTCCATCCTC
DNA 2: GAGGATGGAAGTAAATATGAATTATTTCTTAAACTT
B19: GTGCAC_negctrl_site664 (dsDNA)
DNA 1: AAAAAAAAAAAGATAAATACAAGTTACACAAAAAAA
DNA 2: TTTTTTTGTGTAACTTGTATTTATCTTTTTTTTTTT
B20: GTGCAC_negctrl_site534 (dsDNA)
DNA 1: TTTTTTATCTAATATTTTATAATTTTCATAAATTTG
DNA 2: CAAATTTATGAAAATTATAAAATATTAGATAAAAAA
B21: GTGCAC_negctrl_site41 (dsDNA)
DNA 1: TCTTGATACAAACATTTAAATAAATAAATAAAAAAA
DNA 2: TTTTTTTATTTATTTATTTAAATGTTTGTATCAAGA
B22: GTGCAC_negctrl_site125 (dsDNA)
DNA 1: AAAAATTATAAAAAACAAATATTAAATAATTATTAA
DNA 2: TTAATAATTATTTAATATTTGTTTTTTATAATTTTT
B23: GTGCAC_negctrl_site492 (dsDNA)
DNA 1: AAAACCTAAAAGTCTTAAATTTTAAATATACCTACA
DNA 2: TGTAGGTATATTTAAAATTTAAGACTTTTAGGTTTT
B24: GTGCAC_negctrl_site203 (dsDNA)
DNA 1: TTGATGTATACAATGTAGATTATTTAATATTTCAAT
DNA 2: ATTGAAATATTAAATAATCTACATTGTATACATCAA
B25: GTGCAC_negctrl_site469 (dsDNA)
DNA 1: AACAAAGGATTTATATATACATACATACATACATAA
DNA 2: TTATGTATGTATGTATGTATATATAAATCCTTTGTT
B26: GTGCAC_negctrl_site643 (dsDNA)
DNA 1: TGTAGTCATTAGTCAAATTAGAATTAAATATATATT
DNA 2: AATATATATTTAATTCTAATTTGACTAATGACTACA
B27: GTGCAC_negctrl_site225 (dsDNA)
DNA 1: AAATGAATAAAATTTATTTATAAAAGAAAAATCACA
DNA 2: TGTGATTTTTCTTTTATAAATAAATTTTATTCATTT
B28: GTGCAC_negctrl_site247 (dsDNA)
DNA 1: TGTTTATAAATATAAAAAAATATATATATATATTAT
DNA 2: ATAATATATATATATATTTTTTTATATTTATAAACA
B29: GTGCAC_negctrl_site172 (dsDNA)
DNA 1: TATTTTTTAAGTGAACATTTGTTATTATATTCTTAT
DNA 2: ATAAGAATATAATAACAAATGTTCACTTAAAAAATA
B30: GTGCAC_negctrl_site311 (dsDNA)
DNA 1: ATAAAATACCCTGATCTATTACATATTATATTCTGC
DNA 2: GCAGAATATAATATGTAATAGATCAGGGTATTTTAT
B31: GTGCAC_negctrl_site216 (dsDNA)
DNA 1: GGTAGATTATTATTAACGAAAAATGTTTTTAACATA
DNA 2: TATGTTAAAAACATTTTTCGTTAATAATAATCTACC
B32: GTGCAC_negctrl_site442 (dsDNA)
DNA 1: ATAGTACAACAGGTTCTTGACAAACAATATGAATGT
DNA 2: ACATTCATATTGTTTGTCAAGAACCTGTTGTACTAT
B33: GTGCAC_negctrl_site497 (dsDNA)
DNA 1: TATATAATATATATTTTATATTTGTAATAATTTTTT
DNA 2: AAAAAATTATTACAAATATAAAATATATATTATATA
B34: GTGCAC_negctrl_site271 (dsDNA)
DNA 1: TTGTTAATAAATAAATAAATAAATATATTTATATAT
DNA 2: ATATATAAATATATTTATTTATTTATTTATTAACAA
B35: GTGCAC_negctrl_site372 (dsDNA)
DNA 1: AAAAAAATCACATAAAATACTTTATTTTATATTATA
DNA 2: TATAATATAAAATAAAGTATTTTATGTGATTTTTTT
B36: GTGCAC_negctrl_site606 (dsDNA)
DNA 1: TTTAATTTTACATGAGAAACATATTACAATAAAATA
DNA 2: TATTTTATTGTAATATGTTTCTCATGTAAAATTAAA
B37: GTGCAC_negctrl_site127 (dsDNA)
DNA 1: ATATATACATATACTATATCTTTTATTTTTATTATT
DNA 2: AATAATAAAAATAAAAGATATAGTATATGTATATAT
B38: GTGCAC_negctrl_site156 (dsDNA)
DNA 1: TAACTTTTTTTTTTTTTTTTTTAACTTTTATGTAAT
DNA 2: ATTACATAAAAGTTAAAAAAAAAAAAAAAAAAGTTA
B39: GTGCAC_negctrl_site394 (dsDNA)
DNA 1: AAAAAAAATTAAATAAATAAATATACACATATATAT
DNA 2: ATATATATGTGTATATTTATTTATTTAATTTTTTTT
B40: GTGCAC_negctrl_site286 (dsDNA)
DNA 1: TCCTATCATTTATATTTTACTACATAATATTGATAA
DNA 2: TTATCAATATTATGTAGTAAAATATAAATGATAGGA
B41: GTGCAC_negctrl_site80 (dsDNA)
DNA 1: TATTTTTTTTTCTTTTTATATATAATAATCTTCATT
DNA 2: AATGAAGATTATTATATATAAAAAGAAAAAAAAATA
B42: GTGCAC_negctrl_site418 (dsDNA)
DNA 1: TATTGACAAAAAAAAAAAAGGTAAAAAAGAAAGAAA
DNA 2: TTTCTTTCTTTTTTACCTTTTTTTTTTTTGTCAATA
B43: GTGCAC_negctrl_site517 (dsDNA)
DNA 1: TTTTGAAGTAACAAATAAATAAATAAATATATAAAA
DNA 2: TTTTATATATTTATTTATTTATTTGTTACTTCAAAA
B44: GTGCAC_negctrl_site432 (dsDNA)
DNA 1: AAAAAAATAATATAAATAATGAAAAGATATAAATAA
DNA 2: TTATTTATATCTTTTCATTATTTATATTATTTTTTT

biological target: AP2-I D3 (Plasmodium falciparum, UniProt Q8IJW6 910-1027); assay: gcPBM; about 25 ug protein; PBS, 1% milk, 0.2 mg/ml BSA, salmon testes DNA, 0.03% Triton X-100; settings: tags: N-terminal GST (pGEX-4T-1), kept; label: surface-attached array probe

Row | Binder | binding signal
1 | B1 | 7.11 ln median PBM intensity, better of two orientations
2 | B2 | 7.04 ln median PBM intensity, better of two orientations
3 | B3 | 7.16 ln median PBM intensity, better of two orientations
4 | B4 | 7 ln median PBM intensity, better of two orientations
5 | B5 | 6.97 ln median PBM intensity, better of two orientations
6 | B6 | 7.02 ln median PBM intensity, better of two orientations
7 | B7 | 7.18 ln median PBM intensity, better of two orientations
8 | B8 | 7.11 ln median PBM intensity, better of two orientations
9 | B9 | 6.96 ln median PBM intensity, better of two orientations
10 | B10 | 6.92 ln median PBM intensity, better of two orientations
11 | B11 | 7.04 ln median PBM intensity, better of two orientations
12 | B12 | 7.01 ln median PBM intensity, better of two orientations
13 | B13 | 7.18 ln median PBM intensity, better of two orientations
14 | B14 | 7.14 ln median PBM intensity, better of two orientations
15 | B15 | 7.01 ln median PBM intensity, better of two orientations
16 | B16 | 7.11 ln median PBM intensity, better of two orientations
17 | B17 | 7.14 ln median PBM intensity, better of two orientations
18 | B18 | 7.03 ln median PBM intensity, better of two orientations
19 | B19 | 6.94 ln median PBM intensity, better of two orientations
20 | B20 | 7.06 ln median PBM intensity, better of two orientations
21 | B21 | 7.16 ln median PBM intensity, better of two orientations
22 | B22 | 7.08 ln median PBM intensity, better of two orientations

Row | Binder | binding signal
23 | B23 | 7.08 ln median PBM intensity, better of two orientations
24 | B24 | 7.03 ln median PBM intensity, better of two orientations
25 | B25 | 7.14 ln median PBM intensity, better of two orientations
26 | B26 | 6.93 ln median PBM intensity, better of two orientations
27 | B27 | 7.04 ln median PBM intensity, better of two orientations
28 | B28 | 7.14 ln median PBM intensity, better of two orientations
29 | B29 | 7.06 ln median PBM intensity, better of two orientations
30 | B30 | 7.03 ln median PBM intensity, better of two orientations
31 | B31 | 7.18 ln median PBM intensity, better of two orientations
32 | B32 | 7.13 ln median PBM intensity, better of two orientations
33 | B33 | 7.15 ln median PBM intensity, better of two orientations
34 | B34 | 7.14 ln median PBM intensity, better of two orientations
35 | B35 | 7.11 ln median PBM intensity, better of two orientations
36 | B36 | 7.18 ln median PBM intensity, better of two orientations
37 | B37 | 7.2 ln median PBM intensity, better of two orientations
38 | B38 | 6.93 ln median PBM intensity, better of two orientations
39 | B39 | 7.11 ln median PBM intensity, better of two orientations
40 | B40 | 6.95 ln median PBM intensity, better of two orientations
41 | B41 | 7 ln median PBM intensity, better of two orientations
42 | B42 | 7.05 ln median PBM intensity, better of two orientations
43 | B43 | 7.16 ln median PBM intensity, better of two orientations
44 | B44 | 7.13 ln median PBM intensity, better of two orientations
